Assay results as given in US20240148892A1 (DUALITY BIOLOGICS SUZHOU, published 2024).

T1: human 4IgB7H3 extracellular domain, 6xHis (human, UniProt Q5ZPR3 29-461)
T1 construct: range 29-461; Made in house in Expi293F cells; 47.8 kDa used in the SPR calculation; also called analyte human 4IgB7H3
T1 sequence: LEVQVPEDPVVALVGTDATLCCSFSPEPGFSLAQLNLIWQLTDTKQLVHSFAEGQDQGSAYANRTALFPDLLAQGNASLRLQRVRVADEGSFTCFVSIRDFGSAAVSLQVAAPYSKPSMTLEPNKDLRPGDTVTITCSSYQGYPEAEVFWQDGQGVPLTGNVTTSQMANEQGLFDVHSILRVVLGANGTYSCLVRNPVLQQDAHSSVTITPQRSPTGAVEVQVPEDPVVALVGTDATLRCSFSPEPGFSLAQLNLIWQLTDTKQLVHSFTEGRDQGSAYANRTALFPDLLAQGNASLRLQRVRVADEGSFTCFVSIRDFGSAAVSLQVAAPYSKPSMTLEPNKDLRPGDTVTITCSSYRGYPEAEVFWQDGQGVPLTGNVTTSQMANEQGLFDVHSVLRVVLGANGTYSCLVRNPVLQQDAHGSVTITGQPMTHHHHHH

T2: human full-length B7H3 expressed on MCF-7 cells (human, UniProt Q5ZPR3 29-534)
T2 construct: also called human B7H3-expressing cells MCF-7
T2 sequence: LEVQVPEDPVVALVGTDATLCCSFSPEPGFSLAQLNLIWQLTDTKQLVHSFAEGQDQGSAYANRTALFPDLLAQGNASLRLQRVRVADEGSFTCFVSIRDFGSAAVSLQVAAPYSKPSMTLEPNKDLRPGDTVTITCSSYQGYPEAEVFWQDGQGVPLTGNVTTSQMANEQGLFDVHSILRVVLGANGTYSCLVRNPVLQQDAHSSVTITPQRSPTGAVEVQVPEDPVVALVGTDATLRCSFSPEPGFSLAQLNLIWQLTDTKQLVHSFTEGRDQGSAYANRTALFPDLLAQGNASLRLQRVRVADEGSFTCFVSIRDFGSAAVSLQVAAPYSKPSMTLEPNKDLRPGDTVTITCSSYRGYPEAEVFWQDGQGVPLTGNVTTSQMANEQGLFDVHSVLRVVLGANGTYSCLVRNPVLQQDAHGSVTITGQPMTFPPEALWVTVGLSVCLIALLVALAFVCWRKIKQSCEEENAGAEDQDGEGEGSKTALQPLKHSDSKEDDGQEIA

T3: Human B7-H3/CD276 protein, His tag (2IgB7H3) (human, UniProt Q5ZPR3-2 29-245)
T3 construct: Bought protein; 25.2 kDa used in the SPR calculation; also called human 2IgB7H3; ACRO B73-H52E2; not shown: His tag
T3 sequence (looked up): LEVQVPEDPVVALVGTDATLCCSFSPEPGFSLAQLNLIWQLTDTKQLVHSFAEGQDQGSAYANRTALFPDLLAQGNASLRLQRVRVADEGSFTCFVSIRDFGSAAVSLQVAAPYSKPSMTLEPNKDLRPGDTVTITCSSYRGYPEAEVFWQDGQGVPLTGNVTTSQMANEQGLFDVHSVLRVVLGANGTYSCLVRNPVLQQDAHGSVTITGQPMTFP

B1: W301088-1.145.16-xIgG1KV320 (antibody, V domains shown)
VH: DVQLQESGPGLVKPSQSLSLTCTVTDYSITGDYAWNWIRQFPGNKLEWMGYISYSGSTSYNPSLQSRISITRDTSKNQFFLQLNSVTSEDTATYFCARSLGRRWYFVVWGAGTTVTVSA
VL: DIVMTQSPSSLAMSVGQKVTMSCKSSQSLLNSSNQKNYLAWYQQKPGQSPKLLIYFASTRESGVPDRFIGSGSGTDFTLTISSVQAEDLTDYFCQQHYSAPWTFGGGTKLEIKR
B2: W301088-1.145.16-z3-p1-uIgG1KV320 (antibody, V domains shown)
VH: QVQLQESGPGLVKPSQTLSLTCTVTDYSITGDYAWNWIRQHPGKGLEWIGYISYSGSTSYNPSLQSRVTISRDTSKNQFSLKLSSVTAADTAVYFCARSLGRRWYFVVWGQGTTVTVSS
VL: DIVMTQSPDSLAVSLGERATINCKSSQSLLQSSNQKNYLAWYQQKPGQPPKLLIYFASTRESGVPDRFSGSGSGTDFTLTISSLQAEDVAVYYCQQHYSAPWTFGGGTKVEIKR
notes: Humanized, PTM-removed (VL N027dQ) human IgG1 LALA kappa antibody; also called WBP301088; W301088-z3-p1
B3: Enoblituzumab (MacroGenics) (antibody, V domains shown)
VH: EVQLVESGGGLVQPGGSLRLSCAASGFTFSSFGMHWVRQAPGKGLEWVAYISSDSSAIYYADTVKGRFTISRDNAKNSLYLQMNSLRDEDTAVYYCGRGRENIYYGSRLDYWGQGTTVTVSS
VL: DIQLTQSPSFLSASVGDRVTITCKASQNVDTNVAWYQQKPGKAPKALIYSASYRYSGVPSRFSGSGSGTDFTLTISSLQPEDFATYYCQQYNNYPFTFGQGTKLEIKR

What was measured:
[1] = molecular target: T1, human 4IgB7H3 extracellular domain, …; assay: SPR (Biacore 8K), antibody captured on anti-human Fc IgG, human 4IgB7H3 as analyte, 1:1 model
Description: (§1) The affinity of antibodies for human 4IgB7H3 was determined using surface plasmon resonance (SPR). The affinity of antibodies for human 4IgB7H3 was determined by Biacore 8K. An activator was prepared by mixing 400 mM EDC and 100 mM NHS (GE) immediately prior to injection into the channel. The CMS sensor chip was activated for 420 seconds with the activator. Goat anti-human Fc IgG (30 μg/mL in 10 mM NaAc, pH 4.5) was then injected into the channel at a flow rate of 10 μL/min for 420 seconds. The chip was deactivated by 1 M ethanolamine hydrochloric acid. The antibodies diluted in running buffer (1×HBS-EP+) were injected into the channel at a flow rate of 10 μL/min for 30 seconds. […] Glycine (10 mM, pH 1.5) was injected as regeneration buffer after the dissociation phase.
The sensorgrams for the reference channel and the buffer channel were subtracted from the test sensorgrams. The experimental data were fitted with a 1:1 binding model. The molecular weight of the human 4IgB7H3 used in the calculation was 47.8 kDa.
(§2) The experimental data were fitted by a 1:1 binding model bundled with the Biacore 8K evaluation software.

[2] = molecular target: T2, human full-length B7H3 expressed on …; assay: flow cytometry (FACS) on MCF-7 cells expressing human full-length B7H3
Description: FACS was used to detect the binding of antibodies to human B7H3. This method allows quantitative analysis and identification of specific molecules expressed on the surface of living cells. Unlabeled cells were used as a control to set a threshold before the assay, and the percentage change for each group that exceeded the fluorescence intensity threshold was analyzed. MCF-7 cells expressing human full-length B7H3 (1×10⁵ cells/well) were incubated with various concentrations of antibodies (3.16-fold serially diluted with 1×DPBS/1% BSA from 50 nM to 0.0005 nM) in a volume of 100 μL/well in a refrigerator set to 4° C. for 1 h. Anti-human B7H3 reference antibody enoblituzumab (MacroGeneics) was used as a positive control. Human IgG1 isotype antibody was used as a negative control. After washing the cells with 1×DPBS/1% BSA, Alexa 647 goat anti-human antibody (diluted in a 1:500 ratio in 1×DPBS/1% BSA) was added. The cells were incubated in a refrigerator set to 4° C. for 0.5 h in the dark. The mean fluorescence intensity (MFI) of the cells was measured by a flow cytometry and analyzed by FlowJo. EC₅₀ values were calculated by four-parameter non-linear regression analysis using GraphPad Prism 7 software.

[3] = molecular target: T3, Human B7-H3/CD276 protein, His tag …; assay: SPR (Biacore 8K), antibody captured on anti-human Fc IgG, human 2IgB7H3 as analyte, 1:1 model
Description: as §1, with “2IgB7H3” for “4IgB7H3”
The sensorgrams for the reference channel and the buffer channel were subtracted from the test sensorgrams. The experimental data were fitted with a 1:1 binding model. The molecular weight of the human 2IgB7H3 used in the calculation was 25.2 kDa.
as §2

Row | Binder | Kd [1] [nM] | koff [1] [s⁻¹] | kon [1] [M⁻¹ s⁻¹] | EC50 [2] [nM] | Kd [3] [nM] | koff [3] [s⁻¹] | kon [3] [M⁻¹ s⁻¹]
1 | B1 | 0.0515 | 3.39e-05 | 657000 | 1.16 | 57.7 | 0.0136 | 235000
2 | B2 | 0.0708 | 4.65e-05 | 657000 | 1.08 | 46.4 | 0.0141 | 303000
3 | B3 | 1.02 | 0.000126 | 124000 | 2.49 | 261 | 0.0168 | 64400
